Source: article PMC9672952

How the values were obtained:
[1] = biological target: RseP from Enterococcus faecalis V583, without His-tag (Enterococcus faecalis V583) (UniProt Q9RPP2)
[2] = biological target: RseP from Enterococcus faecium P21, without His-tag (Enterococcus faecium P21) (UniProt I3U2R6)
[3] = biological target: RseP from Lactiplantibacillus plantarum WCFS1, without His-tag (Lactiplantibacillus plantarum WCFS1)
[4] = biological target: RseP from Lactococcus lactis IL1403, without His-tag (Lactococcus lactis IL1403)
[5] = biological target: RseP from Staphylococcus arlettae LMGT 4134, without His-tag (Staphylococcus arlettae LMGT 4134)
[6] = biological target: RseP from Staphylococcus aureus ATCC 14458, without His-tag (Staphylococcus aureus ATCC 14458)
[7] = biological target: RseP from Staphylococcus haemolyticus, without His-tag (Staphylococcus haemolyticus)
[8] = biological target: EfmRseP with substitution D372A (Enterococcus faecium P21) (UniProt I3U2R6); assay: flow cytometry on cells; noninduced L. plantarum cells expressing the RseP variant, 1 μM FITC-labeled EntK1 in 100 μM triammonium citrate pH 6.5, 20 min, room temperature; median fluorescence intensity relative to cells expressing EfmRseP (rMFI), triplicate
[9] = biological target: EfmRseP with substitution E19A (Enterococcus faecium P21) (UniProt I3U2R6); assay: as above
[10] = biological target: EfmRseP with substitution H18A (Enterococcus faecium P21) (UniProt I3U2R6); assay: as above
[11] = biological target: EfmRseP with substitution H22A (Enterococcus faecium P21) (UniProt I3U2R6); assay: as above
[12] = biological target: EfmRseP with substitution N364A (Enterococcus faecium P21) (UniProt I3U2R6); assay: as above
[13] = biological target: EfmRseP with substitution P367A (Enterococcus faecium P21) (UniProt I3U2R6); assay: as above
[14] = biological target: EfmRseP with substitution P369A (Enterococcus faecium P21) (UniProt I3U2R6); assay: as above
[15] = biological target: EfmRseP with the triple alanine substitution of the HExxH motif (Enterococcus faecium P21) (UniProt I3U2R6); assay: as above
[16] = biological target: Fusion of EfmRseP (1–221) and LpRseP (222–425) (Enterococcus faecium P21 | Lactiplantibacillus plantarum WCFS1) (UniProt I3U2R6); assay: as above
[17] = biological target: Fusion of EfmRseP (1–325) and LpRseP (326–425) (Enterococcus faecium P21 | Lactiplantibacillus plantarum WCFS1) (UniProt I3U2R6); assay: as above
[18] = biological target: Fusion of LpRseP (1–171, 326–425) and EfmRseP (172–325) (Lactiplantibacillus plantarum WCFS1 | Enterococcus faecium P21) (UniProt I3U2R6); assay: as above
[19] = biological target: Fusion of LpRseP (1–201, 328–425) and EfmRseP (202–327) (Lactiplantibacillus plantarum WCFS1 | Enterococcus faecium P21) (UniProt I3U2R6); assay: as above
[20] = biological target: RseP from Enterococcus faecium P21, C-terminal 6× His-tag (Enterococcus faecium P21) (UniProt I3U2R6); assay: as above
[21] = biological target: RseP from Lactiplantibacillus plantarum WCFS1, C-terminal 6× His-tag (Lactiplantibacillus plantarum WCFS1); assay: as above
[22] = biological target: Truncation of EfmRseP (1–39, 139–422) Δ40–138 (Enterococcus faecium P21) (UniProt I3U2R6); assay: as above

FITC-labeled Enterocin K1 (peptide)
MIC50 of FITC-EntK1 (growth inhibition, microtiter plate) towards L. plantarum expressing this RseP [1]: 0.6 µM | MIC50 of FITC-EntK1 (growth inhibition, microtiter plate) towards L. plantarum expressing this RseP [2]: 0.15 µM | MIC50 of FITC-EntK1 (growth inhibition, microtiter plate) towards L. plantarum expressing this RseP [3]: > 20 µM | MIC50 of FITC-EntK1 (growth inhibition, microtiter plate) towards L. plantarum expressing this RseP [4]: > 20 µM | MIC50 of FITC-EntK1 (growth inhibition, microtiter plate) towards L. plantarum expressing this RseP; footnote: low expression may contribute [5]: > 20 µM | MIC50 of FITC-EntK1 (growth inhibition, microtiter plate) towards L. plantarum expressing this RseP; footnote: low expression may contribute [6]: > 20 µM | MIC50 of FITC-EntK1 (growth inhibition, microtiter plate) towards L. plantarum expressing this RseP [7]: > 20 µM | rMFI % (relative median fluorescence intensity) [8]: 80.6% | rMFI % (relative median fluorescence intensity) [9]: 65.4% | rMFI % (relative median fluorescence intensity) [10]: 61.6% | rMFI % (relative median fluorescence intensity) [11]: 59% | rMFI % (relative median fluorescence intensity) [12]: 83.4% | rMFI % (relative median fluorescence intensity) [13]: 89.1% | rMFI % (relative median fluorescence intensity) [14]: 84.4% | rMFI % (relative median fluorescence intensity) [15]: 0.5% | rMFI % (relative median fluorescence intensity) [16]: 37.6% | rMFI % (relative median fluorescence intensity) [17]: 97.6% | rMFI % (relative median fluorescence intensity) [18]: 78% | rMFI % (relative median fluorescence intensity) [19]: 54.8% | rMFI % (relative median fluorescence intensity) [20]: 100% | rMFI % (relative median fluorescence intensity) [21]: 0.41% | rMFI % (relative median fluorescence intensity) [22]: 7.4%
